Experimental data from US20170189519A1.

Key:
Settings in all cases: remark: other sources report otherwise
s127H1-t2-cl18long [1] = assay: SEC-MALS with Fab fragments, protein of fraction 3 (ca. 110 kD alone)
s127H1-t2-cl18long [2] = assay: SEC-MALS with Fab fragments, protein of fraction 3
s127H1-t2-cl18long [3] = biological target: s127H1-t2-cl18long
26H1 = assay: ELISA, coated CR6261, P. pastoris culture medium

B1: Fab fragment of CR6261 (Fab, V domains shown)
VH: EVQLVESGAEVKKPGSSVKVSCKASGGPFRSYAISWVRQAPGQGPEWMGGIIPIFGTTKYAPKFQGRVTITADDFAGTVYMELSSLRSEDTAMYYCAKHMGYQVRETMDVWGKGTTVTVSS
VL: QSVLTQPPSVSAAPGQKVTISCSGSSSNIGNDYVSWYQQLPGTAPKLLIYDNNKRPSGIPDRFSGSKSGTSATLGITGLQTGDEANYYCATWDRRPTAYVVFGGGTKLTVLG
size of the complex formed (s127H1-t2-cl18long [1]): 215 kD
Fab fragments bound per trimer (Fab fragments) (s127H1-t2-cl18long [2]): 3

B2: CR6261 (antibody, V domains shown)
VH: EVQLVESGAEVKKPGSSVKVSCKASGGPFRSYAISWVRQAPGQGPEWMGGIIPIFGTTKYAPKFQGRVTITADDFAGTVYMELSSLRSEDTAMYYCAKHMGYQVRETMDVWGKGTTVTVSS
VL: QSVLTQPPSVSAAPGQKVTISCSGSSSNIGNDYVSWYQQLPGTAPKLLIYDNNKRPSGIPDRFSGSKSGTSATLGITGLQTGDEANYYCATWDRRPTAYVVFGGGTKLTVLG
Kd (s127H1-t2-cl18long [3]): 700 pM
CR6261 binding signal (26H1): 78800
